Measured values from US7279548 (CYTOGEN, dated 2007).
No end group written: not given here. *: point of attachment. Biotin = O=C1N[C@H]2[C@H](CS[C@H]2CCCCC(=O)*)N1

B1: WBP-1-Pro3 (alanine substitution at the third proline position of the PPPPY motif of WBP-1) (peptide)
peptide: Biotin-SGSGPGTPPAPYTVGPGY
modifications: not fully specified
B2: WBP-2B peptide (biotin-SGSGPGTPYPPPPEFY) (peptide)
peptide: Biotin-SGSGPGTPYPPPPEFY
notes: Tested as SA-AP complex
B3: WBP-2A-Pro4 (alanine substitution of the third proline of the PPPPY motif of WBP-2A) (peptide)
peptide: Biotin-SGSGYVQPPPAPYPGPM
B4: WBP-1 peptide (biotin-SGSGPGTPPPPYTVGPGY) (peptide)
peptide: Biotin-SGSGPGTPPPPYTVGPGY
notes: Tested as streptavidin-enzyme complex
B5: WBP-2A peptide (biotin-SGSGYVQPPPPPYPGPM) (peptide)
peptide: Biotin-SGSGYVQPPPPPYPGPM
notes: Tested as SA-AP complex
B6: Peptide bWW060 (alanine substitution of the tyrosine of the PPPPY-like motif of the HECT domain of WWP4) (peptide)
peptide: NRLDLPPAETFED
modifications: also: biotinylated
notes: Short peptide
B7: ENaCβ-P616L peptide (peptide)
peptide: Biotin-PGTPPLNYDSLRL
B8: ENaCβ-Y618H peptide (peptide)
peptide: Biotin-PGTPPPNHDSLRL
B9: Peptide bWW062 (alanine substitution of the tyrosine of the PPPPY-like motif of the HECT domain of WWP2) (peptide)
peptide: NRLDLPPAKSYEQ
modifications: also: biotinylated
notes: Short peptide

What follows are binders tested against T1, WWP2.3 WW domain expressed as GST fusion protein (human) (assay: ELISA cross affinity mapping, GST-WW fusion).
T1 construct: Whole WWP2 entry named; not shown: glutathione S-transferase (GST) fusion partner
T1 sequence (chain, as listed by the source): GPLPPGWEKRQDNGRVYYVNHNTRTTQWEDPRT

Row | binding result | Binder
1 | no binding | B1
2 | no binding | B2
3 | no binding | B3

The binders below were run against T2, WWP1.2 WW domain expressed as GST fusion protein (human) (assay: ELISA cross affinity mapping, GST-WW fusion).
T2 construct: Whole WWP1 entry named; not shown: glutathione S-transferase (GST) fusion partner
T2 sequence (chain, as listed by the source): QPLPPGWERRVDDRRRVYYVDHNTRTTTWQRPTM

Row | binding result | Binder
4 | no binding | B1
5 | no binding | B2
6 | no binding | B3

Each binder was assayed against T3, WWP3 WW domain expressed as GST fusion protein (human) (assay: ELISA cross affinity mapping, GST-WW fusion).
T3 construct: Whole WWP3 entry named; not shown: glutathione S-transferase (GST) fusion partner
T3 sequence (chain, as listed by the source): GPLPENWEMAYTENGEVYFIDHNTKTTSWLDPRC

Row | binding result | Binder
7 | no binding | B4
8 | no binding | B2
9 | binds | B5
10 | no binding | B3

These binders were tested against T4, WWP1.1 WW domain expressed as GST fusion protein (human) (assay: ELISA cross affinity mapping, GST-WW fusion).
T4 construct: Whole WWP1 entry named; not shown: glutathione S-transferase (GST) fusion partner
T4 sequence (chain, as listed by the source): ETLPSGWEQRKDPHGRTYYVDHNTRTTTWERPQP

Row | binding result | Binder
11 | no binding | B1
12 | no binding | B2
13 | no binding | B3

Each binder was assayed against T5, WWP2.2 WW domain expressed as GST fusion protein (human) (assay: ELISA cross affinity mapping, GST-WW fusion).
T5 construct: Whole WWP2 entry named; not shown: glutathione S-transferase (GST) fusion partner
T5 sequence (chain, as listed by the source): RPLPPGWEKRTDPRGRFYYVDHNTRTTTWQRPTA

Row | binding result | Binder
14 | no binding | B1
15 | no binding | B2
16 | no binding | B3

Each binder was assayed against T6, WWP1.4 WW domain expressed as GST fusion protein (human) (assay: ELISA cross affinity mapping, GST-WW fusion).
T6 construct: Whole WWP1 entry named; not shown: glutathione S-transferase (GST) fusion partner

Row | binding result | Binder
17 | no binding | B1
18 | no binding | B2
19 | no binding | B3

The binders below were run against T7, WWP2.4 WW domain expressed as GST fusion protein (human) (assay: ELISA cross affinity mapping, GST-WW fusion).
T7 construct: Whole WWP2 entry named; also called WW2.4; not shown: glutathione S-transferase (GST) fusion partner
T7 sequence (chain, as listed by the source): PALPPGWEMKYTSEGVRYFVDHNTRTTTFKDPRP

Row | binding result | Binder
20 | no binding | B1
21 | no binding | B2
22 | no binding | B3

Each binder was assayed against T8, WWP2.1 WW domain expressed as GST fusion protein (human) (assay: ELISA cross affinity mapping, GST-WW fusion).
T8 construct: Whole WWP2 entry named; not shown: glutathione S-transferase (GST) fusion partner
T8 sequence (chain, as listed by the source): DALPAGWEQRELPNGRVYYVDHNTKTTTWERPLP

Row | binding result | Binder
23 | no binding | B1
24 | no binding | B2
25 | no binding | B3

What follows are binders tested against T9, WWP1.3 WW domain expressed as GST fusion protein (human) (assay: ELISA cross affinity mapping, GST-WW fusion).
T9 construct: Label WWP1.3 follows the pattern of the printed labels; whole WWP1 entry named; not shown: glutathione S-transferase (GST) fusion partner
T9 sequence (chain, as listed by the source): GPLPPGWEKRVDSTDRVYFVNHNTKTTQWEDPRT

Row | binding result | Binder
26 | no binding | B1
27 | no binding | B2
28 | no binding | B3

The binders below were run against T1, WWP2.3 WW domain expressed as GST … (assay: cross affinity mapping, GST-WW fusion).

Row | binding result | Binder
29 | no binding | B6
30 | no binding | B7
31 | no binding | B8
32 | no binding | B9

What follows are binders tested against T2, WWP1.2 WW domain expressed as GST … (assay: cross affinity mapping, GST-WW fusion).

Row | binding result | Binder
33 | no binding | B6
34 | no binding | B7
35 | no binding | B8
36 | no binding | B9

These binders were tested against T4, WWP1.1 WW domain expressed as GST … (assay: cross affinity mapping, GST-WW fusion).

Row | binding result | Binder
37 | no binding | B6
38 | no binding | B7
39 | no binding | B8
40 | no binding | B9

What follows are binders tested against T5, WWP2.2 WW domain expressed as GST … (assay: cross affinity mapping, GST-WW fusion).

Row | binding result | Binder
41 | no binding | B6
42 | no binding | B7
43 | no binding | B8
44 | no binding | B9

These binders were tested against T6, WWP1.4 WW domain expressed as GST … (assay: cross affinity mapping, GST-WW fusion).

Row | binding result | Binder
45 | no binding | B6
46 | no binding | B7
47 | no binding | B8
48 | no binding | B9

What follows are binders tested against T7, WWP2.4 WW domain expressed as GST … (assay: cross affinity mapping, GST-WW fusion).

Row | binding result | Binder
49 | no binding | B6
50 | no binding | B7
51 | no binding | B8
52 | no binding | B9

What follows are binders tested against T8, WWP2.1 WW domain expressed as GST … (assay: cross affinity mapping, GST-WW fusion).

Row | binding result | Binder
53 | no binding | B6
54 | no binding | B7
55 | no binding | B8
56 | no binding | B9

Each binder was assayed against T9, WWP1.3 WW domain expressed as GST … (assay: cross affinity mapping, GST-WW fusion).

Row | binding result | Binder
57 | no binding | B6
58 | no binding | B7
59 | no binding | B8
60 | no binding | B9
